# Biological target: human CCR8 (human) (UniProt P51685)
# Experiment: cell-based or functional assay
# Sequence of UniProt P51685 (P51685 whole entry): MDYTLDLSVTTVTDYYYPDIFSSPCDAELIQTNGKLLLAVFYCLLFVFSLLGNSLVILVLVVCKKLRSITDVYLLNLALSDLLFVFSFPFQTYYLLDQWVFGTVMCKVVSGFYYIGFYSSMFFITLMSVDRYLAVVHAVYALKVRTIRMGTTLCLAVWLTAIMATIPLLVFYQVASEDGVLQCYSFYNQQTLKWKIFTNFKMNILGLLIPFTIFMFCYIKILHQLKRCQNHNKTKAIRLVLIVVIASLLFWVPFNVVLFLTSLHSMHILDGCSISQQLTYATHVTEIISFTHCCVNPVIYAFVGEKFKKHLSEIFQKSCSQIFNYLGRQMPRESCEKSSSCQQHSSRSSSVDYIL
substance,measurement,value
"anti-human CCR8 antibody (clone name: L263G8, BioLegend, Inc.)","inhibition of the cytotoxic activity of aCCR8-2-CAR-12-expressing KHYG-1 cells against ATN-1 cells (calcein), antibody at 33 nM added 10 minutes before the effector cells",> 50%
